B1: CCR5-224 site 1 CCR5 (dsDNA)
DNA 1: GTCATCCTCATCCTGATAAACTGCAAAAG
DNA 2: CTTTTGCAGTTTATCAGGATGAGGATGAC
B2: CCR5-224 site 11 TACR3 (dsDNA)
DNA 1: GTCATCTTCATCAGCATAAACTGTAAAGT
DNA 2: ACTTTACAGTTTATGCTGATGAAGATGAC
B3: CCR5-224 site 14 (dsDNA)
DNA 1: GTCCTGCTCAGCAAAAGAAACTGAAAAAG
DNA 2: CTTTTTCAGTTTCTTTTGCTGAGCAGGAC
B4: CCR5-224 site 15 KCNB2 (dsDNA)
DNA 1: ATGTTCCTCATCTCCCGAAACTGCAAATG
DNA 2: CATTTGCAGTTTCGGGAGATGAGGAACAT
B5: CCR5-224 site 16 (dsDNA)
DNA 1: GTCTTCCTGATGCTACCAAACTGGAAAAG
DNA 2: CTTTTCCAGTTTGGTAGCATCAGGAAGAC
B6: CCR5-224 site 21 (dsDNA)
DNA 1: GTCAACCTCAACACCTACAGACTGCAAAAG
DNA 2: CTTTTGCAGTCTGTAGGTGTTGAGGTTGAC
B7: CCR5-224 site 25 WBSCR17 (dsDNA)
DNA 1: GTTATCCTCAGCAAACTAAAACTGGAACAG
DNA 2: CTGTTCCAGTTTTAGTTTGCTGAGGATAAC
B8: CCR5-224 site 2 CCR2 (dsDNA)
DNA 1: GTCGTCCTCATCTTAATAAACTGCAAAAA
DNA 2: TTTTTGCAGTTTATTAAGATGAGGACGAC
B9: CCR5-224 site 3 BTBD10 promoter (dsDNA)
DNA 1: GTTTTCCTCATCAAAGCAAACTGCAAAAT
DNA 2: ATTTTGCAGTTTGCTTTGATGAGGAAAAC
B10: CCR5-224 site 9 (dsDNA)
DNA 1: GTCATCTTCATCAAAAGGAACTGCAAAAC
DNA 2: GTTTTGCAGTTCCTTTTGATGAAGATGAC
B11: VF2468 site 1 VEGF-A promoter (dsDNA)
DNA 1: AGCAGCGTCTTCGAGAGTGAGGA
DNA 2: TCCTCACTCTCGAAGACGCTGCT
B12: VF2468 site 11 PTK2B (dsDNA)
DNA 1: AGCAGCGTCTCCCTTGAGTGATGG
DNA 2: CCATCACTCAAGGGAGACGCTGCT
B13: VF2468 site 18 (dsDNA)
DNA 1: AGCAGAGTCAGACTTGAGTGAGGT
DNA 2: ACCTCACTCAAGTCTGACTCTGCT
B14: VF2468 site 23 (dsDNA)
DNA 1: AGCAGCGACGCCTGGGAGTGAGGT
DNA 2: ACCTCACTCCCAGGCGTCGCTGCT
B15: VF2468 site 68 PDE9A (dsDNA)
DNA 1: AGCACCGTCCCCCTCAGTGAGGC
DNA 2: GCCTCACTGAGGGGGACGGTGCT
B16: VF2468 site 72 (dsDNA)
DNA 1: AGAAACGTCGTGGAGGAGTGAGGG
DNA 2: CCCTCACTCCTCCACGACGTTTCT
B17: VF2468 site 73 (dsDNA)
DNA 1: AGCAAAGTCTGTACTGAGTGAGGG
DNA 2: CCCTCACTCAGTACAGACTTTGCT
B18: VF2468 site 79 (dsDNA)
DNA 1: AGCACCGTGGCTTCGAGTGAGGC
DNA 2: GCCTCACTCGAAGCCACGGTGCT
B19: VF2468 site 80 (dsDNA)
DNA 1: AGCACGGTCATGATGAGTGAGGC
DNA 2: GCCTCACTCATCATGACCGTGCT
B20: VF2468 site 87 (dsDNA)
DNA 1: AGCATTGTCTCATGTGAGTGAGGT
DNA 2: ACCTCACTCACATGAGACAATGCT

The binders below were run against CCR5-224 ZFN pair expressed in K562 (artificial) (assay: cell_activity; K562). Conditions: tags: FokI cleavage domain.
CCR5-224 ZFN pair expressed in K562 (artificial), sequence (chain, as listed by the source, chain 1 of 2): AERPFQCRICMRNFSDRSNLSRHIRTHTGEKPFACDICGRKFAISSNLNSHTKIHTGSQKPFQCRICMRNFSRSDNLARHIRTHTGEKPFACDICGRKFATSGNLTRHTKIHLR
CCR5-224 ZFN pair expressed in K562 (artificial), sequence (chain, as listed by the source, chain 2 of 2): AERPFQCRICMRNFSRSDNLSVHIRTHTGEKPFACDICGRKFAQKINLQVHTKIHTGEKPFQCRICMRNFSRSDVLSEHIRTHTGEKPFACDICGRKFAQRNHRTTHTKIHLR
Protocol: We were unable to obtain site-specific PCR amplification products for three CCR5-224 sites and seven VF2468 sites and therefore could not analyze the occurrence of NHEJ at those loci. Taken together, these observations indicate that off-target sequences identified through the in vitro selection method include many DNA sequences that can be cleaved by ZFNs in human cells.
To deliver ZFN expression plasmids into cells, 15 μg of either active CCR5-224 ZFN DNA or empty vector DNA were used to Nucleofect 2×10⁶ K562 cells in duplicate reactions following the manufacturer's instructions for Cell Line Nucleofector Kit V (Lonza). GFP-positive cells were isolated by FACS 24 hours post-transfection, expanded, and harvested five days post-transfection with the QIAamp DNA Blood Mini Kit (Qiagen).
PCR for 37 potential CCR5-224 substrates and 97 potential VF2468 substrates was performed with Phusion DNA Polymerase (NEB) and primers “[ZFN] […] fwd” and “[ZFN] […] rev” (Table 9) in 1× Phusion HF Buffer supplemented with 3% DMSO. Primers were designed using Primer3³³. The amplified DNA was purified with the Qiagen PCR Purification Kit, eluted with 10 mM Tris-HCl, pH 8.5, and quantified by 1K Chip on a LabChip GX instrument (Caliper Life Sciences) and combined into separate equimolar pools for the catalytically active and empty vector control samples. PCR products were not obtained for 3 CCR5 sites and 7 VF2468 sites, which excluded these samples from further analysis. Multiplexed Illumina library preparation was performed according to the manufacturer's specifications, except that AMPure XP beads (Agencourt) were used for purification following adapter ligation and PCR enrichment steps. Illumina indices 11 (“GGCTAC”) and 12 (“CTTGTA”) were used for ZFN-treated libraries while indices 4 (“TGACCA”) and 6 (“GCCAAT”) were used for the empty vector controls. Library concentrations were quantified by KAPA Library Quantification Kit for Illumina Genome Analyzer Platform (Kapa Biosystems). Equal amounts of the barcoded libraries derived from active- and empty vector-treated cells were diluted to 10 nM and subjected to single read sequencing on an Illumina HiSeq 2000 at the Harvard University FAS Center for Systems Biology Core facility. Sequences were analyzed using Protocol 9 for active ZFN samples and empty vector controls.

**Q.** B1 was tested. Which activity did it give?
**A.** The activity was 44 % indels.

**Q.** With B2 as the binder, how does the activity read?
**A.** The activity was 0.34 % indels.

**Q.** How did the activity turn out when B3 was run?
**A.** Its activity is 0.025 % indels.

**Q.** Which activity does the source give for B4 here?
**A.** The activity was 0.071 % indels.

**Q.** With B5 as the binder, how does the activity read?
**A.** The activity was 0.019 % indels.

**Q.** B6 was tested. Which activity did it give?
**A.** Its activity is 0.06 % indels.

**Q.** How did the activity turn out when B7 was run?
**A.** Its activity is 0.12 % indels.

**Q.** How did the activity turn out when B8 was run?
**A.** Its activity is 10 % indels.

**Q.** With B9 as the binder, how does the activity read?
**A.** Its activity is 0.07 % indels.

**Q.** With B10 as the binder, how does the activity read?
**A.** The activity was 0.035 % indels.

Each binder was assayed against VF2468 ZFN pair (artificial) (assay: cleavage_in_vitro; ZFN amount for 50% cleavage of 8 nM linear substrate, 4 h 37 C, 10 mM Mg acetate; FIG. 9 legend gives spacer as TCGAA). Conditions: tags: N-terminal FLAG, FokI cleavage domain.
VF2468 ZFN pair (artificial), sequence (chain, as listed by the source, chain 1 of 2): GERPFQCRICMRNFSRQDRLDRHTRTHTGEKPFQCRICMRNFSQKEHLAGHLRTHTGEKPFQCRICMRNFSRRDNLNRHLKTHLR
VF2468 ZFN pair (artificial), sequence (chain, as listed by the source, chain 2 of 2): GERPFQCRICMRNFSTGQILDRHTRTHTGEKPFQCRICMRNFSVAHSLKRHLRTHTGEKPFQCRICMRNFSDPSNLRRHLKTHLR
Protocol: (§1) FIGS. 6A-D. Expression and quantification of ZFNs. Western blots for CCR5-224 and VF2468 are shown (a) for the ZFN samples used in the in vitro selection, and (b) for quantification. (c) Known quantities of N-terminal FLAG-tagged bacterial alkaline phosphatase (FLAG-BAP) were used to generate a standard curve for ZFN quantification. […] (d) Gels are shown of activity assays of CCR5-224 and VF2468 on an 8 nM linear substrate containing one target cleavage site. The ZFNs were each incubated with their respective substrate for 4 hours at 37° C. DNA in the “+lysate” lane was incubated with an amount of in vitro transcription/translation mixture equivalent to that used in the 2.5 nM ZFN reaction. ZFN-mediated cleavage results in two linear fragments approximately 700 bp and 300 bp in length. 2 nM CCR5-224 and 1 nM VF2468 were the amounts required for 50% cleavage of the linear substrate.
(§2) Test substrates for CCR5-224 and VF2468 were constructed by cloning into the HindIII/XbaI sites of pUC19. PCR with primers “test fwd” and “test rev” and Taq DNA polymerase yielded a linear 1 kb DNA that could be cleaved by the appropriate ZFN into two fragments of sizes ˜300 bp and ˜700 bp. […] Reactions were purified with the Qiagen PCR Purification Kit and analyzed on 1% TAE-agarose gels.

**Q.** B11 was tested. Which EC50 did it give?
**A.** The EC50 was 1 nM.

These binders were tested against CCR5-224 ZFN pair (artificial) (assay: cleavage_in_vitro; ZFN amount for 50% cleavage of 8 nM linear substrate, 4 h 37 C, 10 mM Mg acetate). Conditions: tags: N-terminal FLAG, FokI cleavage domain.
Protocol: as §1, §2

**Q.** For B1, which EC50 is on record?
**A.** The EC50 was 2 nM.

Each binder was assayed against VF2468 ZFN pair expressed in K562 (artificial) (assay: cell_activity; K562). Conditions: tags: FokI cleavage domain.

**Q.** For B12, which activity is on record?
**A.** Its activity is 0.04 % indels.

**Q.** How did the activity turn out when B13 was run?
**A.** The activity was 0.1 % indels.

**Q.** How did the activity turn out when B14 was run?
**A.** Its activity is 1.1 % indels.

**Q.** How did the activity turn out when B15 was run?
**A.** The activity was 0.28 % indels.

**Q.** For B16, which activity is on record?
**A.** The activity was 0.042 % indels.

**Q.** How did the activity turn out when B17 was run?
**A.** Its activity is 1.3 % indels.

**Q.** For B18, which activity is on record?
**A.** Its activity is 0.029 % indels.

**Q.** B19 was tested. Which activity did it give?
**A.** The activity was 0.041 % indels.

**Q.** Which activity does the source give for B20 here?
**A.** The activity was 0.6 % indels.

Reference: patent US20150010526, “EVALUATION AND IMPROVEMENT OF NUCLEASE CLEAVAGE SPECIFICITY” (President and Fellows of Harvard College, published 2015)
